Biological target: RNAP holoenzyme with [211Cys-TMR] sigma70 (RNAP beacon);gpT5.026 (Escherichia coli;Escherichia phage T5, UniProt P0A7Z4;P0A8V2;P0A8T7;P0A800;P00579;Q6QGR1 1-329;1-1342;1-1407;2-91;1-613;1-153, S211C|)
Test: fluorescence RNAP beacon titration; 100 nM gpT5.026 preincubated 15 min; 40 mM Tris-HCl pH 8.0, 100 mM NaCl, 5% glycerol, 1 mM DTT, 10 mM MgCl2, 0.02% Tween 20, 25 C; 1 nM labeled RNAP holoenzyme
Conditions: protein: recombinant;recombinant; chain copies: 2;1;1;1;1;1

B1: [-38/-12] upstream double-stranded probe (dsDNA)
DNA 1: TATTTGACATCAGGAAAATTTTTTGGT
DNA 2: ACCAAAAAATTTTCCTGATGTCAAATA
  binding signal: ~3 fold higher affinity than without gpT5.026

Source: paper PMC7472727, “Novel Escherichia coli RNA Polymerase Binding Protein Encoded by Bacteriophage T5”
